Target: TrkB receptor (mouse neuromuscular junction) (mouse) (UniProt P15209)
Test: cell-based or functional assay

UniProt P15209, sequence (P15209 32-821): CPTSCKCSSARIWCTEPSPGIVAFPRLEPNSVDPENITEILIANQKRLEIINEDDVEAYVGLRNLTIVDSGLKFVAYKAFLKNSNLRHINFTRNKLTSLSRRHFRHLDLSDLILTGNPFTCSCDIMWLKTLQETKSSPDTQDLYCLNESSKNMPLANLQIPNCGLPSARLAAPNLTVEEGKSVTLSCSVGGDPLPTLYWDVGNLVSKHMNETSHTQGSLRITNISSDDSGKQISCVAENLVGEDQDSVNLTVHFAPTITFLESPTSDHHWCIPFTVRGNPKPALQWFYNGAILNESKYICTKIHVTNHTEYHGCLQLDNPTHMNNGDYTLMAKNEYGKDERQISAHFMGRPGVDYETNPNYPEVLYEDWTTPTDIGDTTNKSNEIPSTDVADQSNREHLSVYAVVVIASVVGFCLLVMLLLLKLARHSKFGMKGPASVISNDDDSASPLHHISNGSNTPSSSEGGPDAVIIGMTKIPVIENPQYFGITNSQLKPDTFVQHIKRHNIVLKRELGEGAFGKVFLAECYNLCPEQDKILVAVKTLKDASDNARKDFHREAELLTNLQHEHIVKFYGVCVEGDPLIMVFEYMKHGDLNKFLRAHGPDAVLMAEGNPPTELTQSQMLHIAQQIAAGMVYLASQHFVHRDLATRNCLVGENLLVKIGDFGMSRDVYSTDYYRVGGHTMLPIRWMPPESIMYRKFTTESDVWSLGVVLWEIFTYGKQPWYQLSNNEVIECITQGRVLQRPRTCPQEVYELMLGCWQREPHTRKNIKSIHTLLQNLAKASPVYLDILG

Row | Substance | elevation in the level of GFP-TTC concentration at the NMJ (100 ng BDNF) [fold] | elevation in the level of GFP-TTC concentration at the NMJ (250 ng BDNF) [fold] | increase of GFP-TTC signal at the NMJ after BoTx/A block [fold] | GFP-TTC localization at the NMJ [fold]
1 | recombinant human BDNF (Alomone labs) (from UniProt P23560 129-247) (ligand) | 1.72 | 1.15 | 2.05 | –
2 | recombinant human NT-4 (Alomone labs) (from UniProt P34130 81-210) (ligand) | – | – | – | 1.54
